Measured values from the RNAGym collection of RNA variant scans (doi:10.1093/nar/gkz1192).

B1: CPEB3 Ribozyme (parent)
chain: UAACAGGGGGCCACAGCAGAAGCGUUCACGUCGCAGCCCCUGUCAGAUUCUGGUGAAUCUGCGAAUUCUGCUGUAUAUCUC

Variants of: B1
Assay: self-cleavage, relative activity (ratio to wild type); higher = more cleavage; in vitro, sequencing
Method in brief: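 Barcoded CPEB3 ribozyme mutants, produced by rounds of error-prone PCR, self-cleaved while being transcribed with T7 RNA polymerase for 5 hours at 37°C and during a subsequent 15 min DNase I step before EDTA was added. Sequencing of template-switched cDNA on Illumina gave cleaved and total reads, and DNA sequencing assigned barcodes to variants. Each variant's relative activity is its cleaved/total read fraction divided by the unmutated ribozyme's fraction, averaged across three batches. A variant needed a minimum of 5 reads.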

| Variant | self-cleavage |
| --- | --- |
| C32G G73A | 0.22 |
| U31C G52A | 1.06 |
| U31C G52C | 1.14 |
| U31G U58C | 0.4 |
| U31G U58A | 0.44 |
| U31C U58C | 0.33 |
| U31C U58A | 0.31 |
| U31C U58G | 0.39 |
| U31G C32U | 0.22 |
| U31G C32A | 0.28 |
| C32U U78C | 0.25 |
| C32U A35U | 0.32 |
| C32U A35G | 0.18 |
| C32U A35C | 0.18 |
| U31C U48C | 0.37 |
| U31C U48A | 0.39 |
| G33A A77U | 0.23 |
| G33A A77G | 0.18 |
| C32A U76C | 0.25 |
| C32G U43C | 0.37 |
| U31G G52A | 0.74 |
| C32G U67C | 0.09 |
| C32G U51A | 0.04 |
| G33A A47G | 0.4 |

| Variant | self-cleavage |
| --- | --- |
| U31C G70C | 0.18 |
| U31C G70A | 0.25 |
| U31C G55U | 0.76 |
| U31C G55A | 0.78 |
| C32A C38A | 0.25 |
| C32A C38G | 0.18 |
| U31C C37A | 0.28 |
| U31C C37U | 0.46 |
| C32A G52U | 0.13 |
| C32A G52A | 0.29 |
| C32A G52C | 0.1 |
| C32A U48C | 0.22 |
| C32A U48G | 0.24 |
| U31C C38G | 0.16 |
| U31C C38A | 0.33 |
| U31C C38U | 0.98 |
| C32A U58A | 0.37 |
| U31G C68A | 0.31 |
| C32U U66A | 0.22 |
| C32U U66C | 0.22 |
| C32G G63A | 0.14 |
| U31C A65U | 0.25 |
| U31C A65G | 0.35 |
| C32A G70U | 0.12 |

| Variant | self-cleavage |
| --- | --- |
| C32A G61A | 0.19 |
| C32U U76C | 0.2 |
| C32U U76A | 0.18 |
| C32A U49C | 0.15 |
| C32A U49A | 0.11 |
| C32A A47G | 0.14 |
| U31G G53A | 0.18 |
| U31C U74A | 1.18 |
| U31C U74C | 1.18 |
| U31C U74G | 1.23 |
| C32A G73A | 0.49 |
| C32A G73C | 0.17 |
| C32G U41G | 0.11 |
| C32G U41A | 0.32 |
| C32U C39A | 0.15 |
| C32G A57G | 0.1 |
| C32A U72C | 0.17 |
| C32A U72G | 0.19 |
| C32A U72A | 0.12 |
| U31C A75C | 1.1 |
| U31C A75U | 0.87 |
| U31C A75G | 0.77 |
| U31C A77G | 0.94 |
| U31C A77U | 0.86 |

| Variant | self-cleavage |
| --- | --- |
| C32U U49A | 0.15 |
| C32U U49C | 0.21 |
| U31C C62A | 0.23 |
| U31C C62U | 0.24 |
| U31C C62G | 0.14 |
| G33A C39U | 0.16 |
| U31C G61C | 0.14 |
| U31C G63U | 0.8 |
| U31C G63A | 0.67 |
| U31C U60G | 0.15 |
| U31C U60A | 0.34 |
| U31C U60C | 0.29 |
| C32U U58C | 0.35 |
| C32U U58A | 0.14 |
| C32U A77C | 0.15 |
| C32U U67C | 0.19 |
| C32U A47U | 0.32 |
| C32U A47G | 0.19 |
| U31G U74G | 0.99 |
| U31G U74C | 0.96 |
| U31G U74A | 1.02 |
| U31G A57G | 0.48 |
| U31G U69C | 0.18 |
| U31G U69A | 0.22 |

| Variant | self-cleavage |
| --- | --- |
| C32U C34U | 0.19 |
| C32U A45G | 0.15 |
| C32U A45U | 0.3 |
| C32U A45C | 0.15 |
| U31G U72G | 0.92 |
| U31G U72A | 0.5 |
| U31G U72C | 0.82 |
| C32A U66C | 0.16 |
| C32A A35G | 0.87 |
| U31C U72C | 0.97 |
| U31C U72G | 0.46 |
| U31C U72A | 0.5 |
| C32G C44U | 0.12 |
| U31G U51C | 0.52 |
| U31C C68U | 0.75 |
| U31C C68A | 0.28 |
| C32A C62G | 0.13 |
| G33A C40A | 0.19 |
| G33A C40G | 0.2 |
| U31C U41C | 0.82 |
| U31C U41G | 0.34 |
| U31C U41A | 0.29 |
| U31G C44U | 0.16 |
| U31G A45C | 0.33 |

| Variant | self-cleavage |
| --- | --- |
| U31G A45G | 0.37 |
| U31G A45U | 0.57 |
| C32U C59U | 0.12 |
| C32A G63A | 0.4 |
| U31C C50U | 0.82 |
| U31C C50A | 0.67 |
| C32G A56G | 0.12 |
| C32U U48C | 0.13 |
| C32A U78C | 0.2 |
| C32U G53A | 0.27 |
| C32G C37U | 0.31 |
| C32G | 0.23 |
| C32U | 0.28 |
| C32A | 0.29 |
| U31G C62G | 0.15 |
| C32A A64G | 0.1 |
| C32U C68G | 0.13 |
| C32U C68U | 0.2 |
| C32G A45C | 0.12 |
| C32G A45U | 0.08 |
| C32U A65G | 0.21 |
| C32U A65U | 0.13 |
| C32A U60A | 0.17 |
| G33A A65C | 0.11 |

| Variant | self-cleavage |
| --- | --- |
| G33A A65G | 0.35 |
| U31C C59A | 0.29 |
| U31C C59U | 0.54 |
| C32U A56G | 0.17 |
| C32U A56U | 0.19 |
| U31C C34U | 0.24 |
| U31C C34A | 0.15 |
| U31C G33A | 0.21 |
| C32G U49C | 0.11 |
| C32U U60C | 0.18 |
| C32U U60G | 0.4 |
| C32U U60A | 0.21 |
| U31G A65G | 0.22 |
| C32U G63A | 0.46 |
| C32G U80A | 0.1 |
| C32G U80C | 0.08 |
| C32A G46A | 0.11 |
| C32U U72A | 0.11 |
| C32U U72C | 0.4 |
| C32G C40U | 0.22 |
| U31G | 0.5 |
| C32A A45G | 0.32 |
| C32A A45U | 0.35 |
